# From US20210388087A1
# Residue numbers refer to the chain shown, from its start. Numbers in names are those of the source.
# B1: H183/L072 VH F29D (antibody, name in Kabat numbering, V domains shown)
# VH: QVQLVESGGGLVQPGRSLRLSCAASGFTDSNAWMHWVRQAPGKGLEWVAQIKDKGNAYAAYYAPSVKGRFTISRDDSKNSIYLQMNSLKTEDTAVYYCHYVHYASASTVLPAFGVDAWGQGTTVTVSS
# VL: DIVMTQSPLSLPVTPGEPASISCQASQELVHMNRNTYLHWYQQKPGQAPRLLIYKVSNRFPGVPDRFSGSGSGTDFTLKISRVEAEDVGVYYCAQGTSVPFTFGQGTKLEIK
# B2: H183/L072 VH N53E (antibody, name in Kabat numbering, V domains shown)
# VH: B1 VH with D29F, N56E
# VL: B1 VL
# B3: H183/L072 VH D52aK (antibody, name in Kabat numbering, V domains shown)
# VH: B1 VH with D29F, D53K
# VL: B1 VL
# B4: H183/L072 VH I51H (antibody, name in Kabat numbering, V domains shown)
# VH: B1 VH with D29F, I51H
# VL: B1 VL
# B5: H183/L072 VH K52H (antibody, name in Kabat numbering, V domains shown)
# VH: B1 VH with D29F, K52H
# VL: B1 VL
# B6: H183/L072 VH W33E (antibody, name in Kabat numbering, V domains shown)
# VH: B1 VH with D29F, W33E
# VL: B1 VL
# B7: H183/L072 VH A32D (antibody, name in Kabat numbering, V domains shown)
# VH: B1 VH with D29F, A32D
# VL: B1 VL
# B8: H183/L072 VH H35E (antibody, name in Kabat numbering, V domains shown)
# VH: B1 VH with D29F, H35E
# VL: B1 VL
# B9: H183/L072 VH I51D (antibody, name in Kabat numbering, V domains shown)
# VH: B1 VH with D29F, I51D
# VL: B1 VL
# B10: H183/L072 VH H35D (antibody, name in Kabat numbering, V domains shown)
# VH: B1 VH with D29F, H35D
# VL: B1 VL
# B11: H183/L072 VH W33H (antibody, name in Kabat numbering, V domains shown)
# VH: B1 VH with D29F, W33H
# VL: B1 VL
# B12: H183/L072 VH W33K (antibody, name in Kabat numbering, V domains shown)
# VH: B1 VH with D29F, W33K
# VL: B1 VL
# B13: H183/L072 VH K52E (antibody, name in Kabat numbering, V domains shown)
# VH: B1 VH with D29F, K52E
# VL: B1 VL
# B14: H183/L072 VH F29H (antibody, name in Kabat numbering, V domains shown)
# VH: B1 VH with D29H
# VL: B1 VL
# B15: H183/L072 VH H35K (antibody, name in Kabat numbering, V domains shown)
# VH: B1 VH with D29F, H35K
# VL: B1 VL
# B16: H183/L072 VH D52aE (antibody, name in Kabat numbering, V domains shown)
# VH: B1 VH with D29F, D53E
# VL: B1 VL
# B17: H183/L072 VH M34K (antibody, name in Kabat numbering, V domains shown)
# VH: B1 VH with D29F, M34K
# VL: B1 VL
# B18: H183/L072 VH N31E (antibody, name in Kabat numbering, V domains shown)
# VH: B1 VH with D29F, N31E
# VL: B1 VL
# B19: H183/L072 VH K52bD (antibody, name in Kabat numbering, V domains shown)
# VH: B1 VH with D29F, K54D
# VL: B1 VL
# B20: H183/L072 VH D52aH (antibody, name in Kabat numbering, V domains shown)
# VH: B1 VH with D29F, D53H
# VL: B1 VL
# B21: H183/L072 VH N53D (antibody, name in Kabat numbering, V domains shown)
# VH: B1 VH with D29F, N56D
# VL: B1 VL
# B22: H183/L072 VH M34E (antibody, name in Kabat numbering, V domains shown)
# VH: B1 VH with D29F, M34E
# VL: B1 VL
# B23: H183/L072 VH K52D (antibody, name in Kabat numbering, V domains shown)
# VH: B1 VH with D29F, K52D
# VL: B1 VL
# B24: H183/L072 VH N31D (antibody, name in Kabat numbering, V domains shown)
# VH: B1 VH with D29F, N31D
# VL: B1 VL
# B25: H183/L072 VH F29E (antibody, name in Kabat numbering, V domains shown)
# VH: B1 VH with D29E
# VL: B1 VL
# B26: H183/L072 VH M34D (antibody, name in Kabat numbering, V domains shown)
# VH: B1 VH with D29F, M34D
# VL: B1 VL
# B27: H183/L072 VH I51E (antibody, name in Kabat numbering, V domains shown)
# VH: B1 VH with D29F, I51E
# VL: B1 VL
# B28: H183/L072 VH W33D (antibody, name in Kabat numbering, V domains shown)
# VH: B1 VH with D29F, W33D
# VL: B1 VL
# B29: H183/L072 VH G26K (antibody, name in Kabat numbering, V domains shown)
# VH: B1 VH with G26K, D29F
# VL: B1 VL
# B30: H183/L072 VH F29K (antibody, name in Kabat numbering, V domains shown)
# VH: B1 VH with D29K
# VL: B1 VL
# B31: H183/L072 VH N53K (antibody, name in Kabat numbering, V domains shown)
# VH: B1 VH with D29F, N56K
# VL: B1 VL
# B32: H183/L072 VH N31K (antibody, name in Kabat numbering, V domains shown)
# VH: B1 VH with D29F, N31K
# VL: B1 VL
# B33: H183/L072 VH N53H (antibody, name in Kabat numbering, V domains shown)
# VH: B1 VH with D29F, N56H
# VL: B1 VL
# Biological target: Human CD137 ECD (human)
# Sequence (chain, as listed by the source limits assumed): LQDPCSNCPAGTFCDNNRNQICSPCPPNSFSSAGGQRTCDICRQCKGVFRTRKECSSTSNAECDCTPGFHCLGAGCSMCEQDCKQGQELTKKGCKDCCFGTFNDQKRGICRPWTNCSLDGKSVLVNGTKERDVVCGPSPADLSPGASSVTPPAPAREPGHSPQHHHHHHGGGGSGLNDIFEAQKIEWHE
# Assay: single mutant vs template dBBDu183H
row,fold change of affinity [fold],Binder
1,0,B1
2,0,B2
3,0,B3
4,0,B4
5,0,B5
6,0,B6
7,0,B7
8,0,B8
9,0,B9
10,0,B10
11,0,B11
12,0,B12
13,0,B13
14,0,B14
15,0,B15
16,0,B16
17,0,B17

row,fold change of affinity [fold],Binder
1,0,B18
2,0,B19
3,0,B20
4,0,B21
5,0,B22
6,0,B23
7,0,B24
8,0,B25
9,0,B26
10,0,B27
11,0,B28
12,0,B29
13,0,B30
14,0,B31
15,0,B32
16,0,B33
